The assay addresses NY-ESO-1 157-165 peptide … presented on HLA-A*0201 (human). Put plainly: cell-based or functional assay.

The substance “TCR1G4 (specific for the NY-ESO-1 157-165 … antigen), displayed on TnT cells” returned a mRuby2 (STAT5-mRuby2 reporter) expression in peptide-pulsed ACDC-HLA cells after co-culture with TnT-TCR1G4 cells of 29% and a mRuby2+ cells of the monoclonal ACDC-HLA (A*0201) line (Clone 3, …-pulsed) after co-culture with TnT-TCR1G4 cells of 46.7%.
